The target of this experiment is T1, (NPNA)2 peptide (Plasmodium falciparum).
T1 chain: NPNANPNA
As to the kind of experiment: ITC.

The results in this text go back to article doi:10.1101/332304 (bioRxiv, 2018).

B1: Fab311 inter-Fab contact residue reverted (Fab311R) (Fab, V domains shown)
VH: QVQLVESGGGVVPPGRSLRLSCATSGFTFSSYGMHWVRQAPGKGLEWVAIIWYDGSNKFYAASVKGRFTISRDNSKNTLYLQMNSLRVEDTAVYYCARAAYYDTSGYGDYWGQGTLVTVSS
VL: QSVLTQPPSVSGAPGQTVTISCTGGSSNIGAGYDVHWYQQLPGTAPKLLIYGNINRPSGVPDRFSGSKSGTSASLAITGLQAEDEADYYCQSYDSSLSGSWVFGGGTKLTVL
Consider B1, for which the binding result was “binds”.
